Square brackets hold non-standard residues; d marks the D form. Ends that are not written are not given here. Cit = NC(=O)NCCC[C@H](N)C(=O)O
Tests used:
[1] = molecular target: MHC class II of the HLA DRB1 0101 genotype (Homo sapiens, UniProt P01903+P01911, A100R/D57E/F55L/F60I/F76Y/I96L/L162R/M171V/P40L/Q125E/R42F/V115G/Y59C); experiment: in vitro binding assay to recombinant MHC class II protein; set-up: key: *0101: the listing of the allele in the column for the allele indicates binding; *0401: “0401” in the “Binds to 0401” column indicates binding of the peptide to MHC class II of the HLA DRB1 0401 genotype; *0404: the listing of the allele in the column for the allele indicates binding; *0405: the listing of the allele in the column for the allele indicates binding; *0408: the listing of the allele in the column for the allele indicates binding; *1001: the listing of the allele in the column for the allele indicates binding; “no” or no data indicates no binding to a protein of that genotype
Excerpt: (§1) Binding of the peptides to recombinant MHC class II protein of various alleles has been confirmed in an in vitro binding assay and the results are shown in Tables 1, 2 and 3. In table 1, 2 and 3, the listing of the allele in the column for the allele indicates binding. Thus “0401” in the “Binds to 0401” column indicates binding of the peptide to MHC class II of the HLA DRB1 0401 genotype. “no” or no data indicates no binding to a protein of that genotype. Empty boxes indicate no binding or that binding has not been determined. In the tables it is also indicated if the peptide has a citrulline residue, where “yes” indicates the presence of a citrulline residue and “no” indicates the absence of a citrulline residue.

[2] = molecular target: MHC class II of the HLA DRB1 0404 genotype (Homo sapiens, UniProt P01903+P01911, A100R/A169T/F76Y/I96L/K127E/L162R/M171V/N62H/P40V/Q125Y/R42H/S133A/S149N/S66Y/V209L/W38E); experiment: as above; set-up: key: *0101: the listing of the allele in the column for the allele indicates binding; *0401: “0401” in the “Binds to 0401” column indicates binding of the peptide to MHC class II of the HLA DRB1 0401 genotype; *0404: the listing of the allele in the column for the allele indicates binding; *0405: the listing of the allele in the column for the allele indicates binding; *0408: the listing of the allele in the column for the allele indicates binding; *1001: the listing of the allele in the column for the allele indicates binding; “no” or no data indicates no binding to a protein of that genotype
Excerpt: as §1

[3] = molecular target: MHC class II of the HLA DRB1 0405 genotype (Homo sapiens, UniProt P01903+P01911, A100R/A169T/D86S/F76Y/I96L/K127E/L162R/M171V/N62H/P40V/Q125Y/R42H/S133A/S149N/S66Y/V115G/V209L/W38E); experiment: as above; set-up: key: *0101: the listing of the allele in the column for the allele indicates binding; *0401: “0401” in the “Binds to 0401” column indicates binding of the peptide to MHC class II of the HLA DRB1 0401 genotype; *0404: the listing of the allele in the column for the allele indicates binding; *0405: the listing of the allele in the column for the allele indicates binding; *0408: the listing of the allele in the column for the allele indicates binding; *1001: the listing of the allele in the column for the allele indicates binding; “no” or no data indicates no binding to a protein of that genotype
Excerpt: as §1

[4] = molecular target: MHC class II of the HLA DRB1 0401 genotype (Homo sapiens, UniProt P01903+P01911, A100K/A169T/F76Y/I96L/K127E/L162R/M171V/N62H/P40V/Q125Y/R42H/S133A/S149N/S66Y/V115G/V209L/W38E); experiment: as above; set-up: key to Binds to 0401: *0101: the listing of the allele in the column for the allele indicates binding; *0401: “0401” in the “Binds to 0401” column indicates binding of the peptide to MHC class II of the HLA DRB1 0401 genotype; *0404: the listing of the allele in the column for the allele indicates binding; *0405: the listing of the allele in the column for the allele indicates binding; *0408: the listing of the allele in the column for the allele indicates binding; *1001: the listing of the allele in the column for the allele indicates binding; “no” or no data indicates no binding to a protein of that genotype; conditions: for Binds to 0401: recombinant MHC class II, HLA DRB1 0401
Excerpt: as §1
Thus for these peptides no binding to HLA-DR0401 was observed when citrulline was exchanged with the original amino acid arginine (Table 4). No binding of the citrullinated peptides was seen to HLA-DR 03 or 02 variants.

[5] = test system: MHC class II of the HLA DRB1 0408 genotype; experiment: as above; set-up: species or system human; key: *0101: the listing of the allele in the column for the allele indicates binding; *0401: “0401” in the “Binds to 0401” column indicates binding of the peptide to MHC class II of the HLA DRB1 0401 genotype; *0404: the listing of the allele in the column for the allele indicates binding; *0405: the listing of the allele in the column for the allele indicates binding; *0408: the listing of the allele in the column for the allele indicates binding; *1001: the listing of the allele in the column for the allele indicates binding; “no” or no data indicates no binding to a protein of that genotype
Excerpt: as §1

[6] = test system: MHC class II of the HLA DRB1 1001 genotype; experiment: as above; set-up: species or system human; key to Binds to 1001: *0101: the listing of the allele in the column for the allele indicates binding; *0401: “0401” in the “Binds to 0401” column indicates binding of the peptide to MHC class II of the HLA DRB1 0401 genotype; *0404: the listing of the allele in the column for the allele indicates binding; *0405: the listing of the allele in the column for the allele indicates binding; *0408: the listing of the allele in the column for the allele indicates binding; *1001: the listing of the allele in the column for the allele indicates binding; “no” or no data indicates no binding to a protein of that genotype; conditions: recombinant MHC class II, HLA DRB1 1001
Excerpt: as §1

[7] = test system: PBMCs (CD4+ T cells) from rheumatoid arthritis patients with HLA genotype HLA DRB1-0401; experiment: T-cell activation in PBMCs, intracellular cytokine staining and CD154 by flow cytometry; format: cell-based, human; conditions: 5 to 50 ug/ml, 5-day incubation

a-enolase 12: human alpha-enolase peptide, not citrullinated (RYMGKGVSKAVEHIN; listed as Homo sapiens)
Binds to 0101 [1]: *0101
Binds to 0404 [2]: no
Binds to 0405 [3]: *0405
Binds to 0401 [4]: no
Binds to 0408 [5]: *0408
Binds to 1001 [6]: *1001

a-enolase 38: human alpha-enolase peptide, not citrullinated (AEVYHNLKNVIKEKY; listed as Homo sapiens)
Binds to 0101 [1]: *0101
Binds to 0404 [2]: no
Binds to 0405 [3]: *0405
Binds to 0401 [4]: *0401
Binds to 0408 [5]: *0408
Binds to 1001 [6]: no

a-enolase 26: human alpha-enolase peptide, not citrullinated (KGVPLYRHIADLAGN; listed as Homo sapiens)
Binds to 0101 [1]: *0101
Binds to 0404 [2]: *0404
Binds to 0405 [3]: *0405
Binds to 0401 [4]: *0401
Binds to 0408 [5]: *0408
Binds to 1001 [6]: no

a-enolase 80: human alpha-enolase peptide, not citrullinated (GAPCRSERLAKYNQL; listed as Homo sapiens)
Binds to 0101 [1]: *0101
Binds to 0404 [2]: no
Binds to 0405 [3]: *0405
Binds to 0401 [4]: no
Binds to 0408 [5]: *0408
Binds to 1001 [6]: no

a-enolase 49: human alpha-enolase peptide, not citrullinated (VIGMDVAASEFFRSG; listed as Homo sapiens)
Binds to 0101 [1]: no
Binds to 0404 [2]: *0404
Binds to 0405 [3]: *0405
Binds MHC in vitro ([4]; HLA tested *0401): yes
Binds to 0401 [4]: *0401
Binds to 0408 [5]: *0408
Binds to 1001 [6]: no
double staining for CD154 and at least one cytokine (IFNgamma, IL-17A, TNF alpha), activation of T-cells ([7]; HLA DRB1-0401 patients): double stained positive for both CD154 and at least one cytokine
Activation of T-cells ([7]; HLA tested *0401, yes = all patients positive for at least one cytokine): yes

a-enolase 36: human alpha-enolase peptide, not citrullinated (ANFREAMRIGAEVYH; listed as Homo sapiens)
Binds to 0101 [1]: *0101
Binds to 0404 [2]: no
Binds to 0405 [3]: *0405
Binds to 0401 [4]: no
Binds to 0408 [5]: no
Binds to 1001 [6]: no

a-enolase 45: human alpha-enolase peptide, not citrullinated (KEGLELLKTAIGKAG; listed as Homo sapiens)
Binds to 0101 [1]: *0101
Binds to 0404 [2]: *0404
Binds to 0405 [3]: *0405
Binds to 0401 [4]: *0401
Binds to 0408 [5]: *0408
Binds to 1001 [6]: no

a-enolase 15: human alpha-enolase peptide, not citrullinated (KTIAPALVSKKLNVT; listed as Homo sapiens)
Binds to 0101 [1]: *0101
Binds to 0404 [2]: *0404
Binds to 0405 [3]: no
Binds to 0401 [4]: no
Binds to 0408 [5]: *0408
Binds to 1001 [6]: no

a-enolase 299: citrullinated human alpha-enolase peptide (KGVPLY[Cit]HIADLAGN; listed as Homo sapiens)
Binds to 0101 [1]: no
Binds to 0404 [2]: no
Binds to 0405 [3]: *0405
Binds to 0401 [4]: *0401
Binds to 0408 [5]: *0408
Binds to 1001 [6]: no

a-enolase 13: human alpha-enolase peptide, not citrullinated (GVSKAVEHINKTIAP; listed as Homo sapiens)
Binds to 0101 [1]: *0101
Binds to 0404 [2]: *0404
Binds to 0405 [3]: no
Binds to 0401 [4]: no
Binds to 0408 [5]: no
Binds to 1001 [6]: no

a-enolase 1: human alpha-enolase peptide, not citrullinated (MSILKIHAREIFDSR; listed as Homo sapiens)
Binds to 0101 [1]: *0101
Binds to 0404 [2]: *0404
Binds to 0405 [3]: *0405
Binds to 0401 [4]: no
Binds to 0408 [5]: no
Binds to 1001 [6]: *1001

a-enolase 81: human alpha-enolase peptide, not citrullinated (SERLAKYNQLLRIEE; listed as Homo sapiens)
Binds to 0101 [1]: *0101
Binds to 0404 [2]: *0404
Binds to 0405 [3]: no
Binds to 0401 [4]: no
Binds to 0408 [5]: no
Binds to 1001 [6]: no

a-enolase 14: human alpha-enolase peptide, not citrullinated (VEHINKTIAPALVSK; listed as Homo sapiens)
Binds to 0101 [1]: *0101
Binds to 0404 [2]: *0404
Binds to 0405 [3]: no
Binds to 0401 [4]: no
Binds to 0408 [5]: *0408
Binds to 1001 [6]: no

a-enolase 69: human alpha-enolase peptide, not citrullinated (LLKVNQIGSVTESLQ; listed as Homo sapiens)
Binds to 0101 [1]: no
Binds to 0404 [2]: no
Binds to 0405 [3]: *0405
Binds to 0401 [4]: no
Binds to 0408 [5]: no
Binds to 1001 [6]: no

a-enolase 34: human alpha-enolase peptide, not citrullinated (QEFMILPVGAANFRE; listed as Homo sapiens)
Binds to 0101 [1]: *0101
Binds to 0404 [2]: *0404
Binds to 0405 [3]: *0405
Binds to 0401 [4]: *0401
Binds to 0408 [5]: no
Binds to 1001 [6]: no
